Data published in article PMC12379375.

Biological target: recombinant CgDM9CP-6 (DM9 domain containing protein 6 of Crassostrea gigas), His tag (Crassostrea gigas)
Assay: BLI

- Kd: 3.81 µM
Substance: recombinant Cg14-3-3ε (14-3-3 epsilon of Crassostrea gigas), GST tag (natural protein)
